Results from US20210238279A1 (Johns Hopkins, published 2021).
Where a chain is given by its changes, count along the chain named.

Tests used:
[1] = target: T1, human ZnT8-His (human, UniProt Q8IWU4-2 1-320, limits assumed); assay: ELISA, ZnT8-His on Ni-NTA plate, HRP-conjugated secondary antibody; curve taken as human by paragraph 166
T1 construct: Over-expressed in HEK293 cells, solubilized with DDM and immobilized on Ni-NTA plates (native or unfolded with 2% SDS), or SDS-denatured on immunoblots; also called human ZnT8 with C-terminal poly-histidine tag; not shown: C-terminal poly-histidine tag
T1 sequence (looked up): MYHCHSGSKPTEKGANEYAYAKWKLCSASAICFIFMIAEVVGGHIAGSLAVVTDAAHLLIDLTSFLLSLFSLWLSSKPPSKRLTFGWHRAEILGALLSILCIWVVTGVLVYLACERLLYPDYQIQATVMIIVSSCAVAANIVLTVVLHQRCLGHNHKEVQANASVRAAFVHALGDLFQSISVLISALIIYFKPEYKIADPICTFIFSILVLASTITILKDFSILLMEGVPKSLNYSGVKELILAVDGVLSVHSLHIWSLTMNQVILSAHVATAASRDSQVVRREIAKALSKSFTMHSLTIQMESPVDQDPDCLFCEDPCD
Excerpt: (§1) FIG. 7A-7D. mAb binding specificities (FIG. 7A) mAb binding to ZnT8-His immobilized to Ni-NTA plate. Bound mAb20 (red) or mAb39 (magenta) was detected by an HRP-conjugated secondary antibody. Solid lines are least-squares fits of binding datapoints to a one-component binding process. Error bars are standard errors (n=8). (FIG. 7B) SDS-denatured mouse ZnT8-His (labeled as M) and human ZnT8-His (labeled as H) on immunoblots were detected by mAb20 or mAb39 as indicated. […] (FIG. 7C) Detection of endogenous human ZnT8 in EndoC-βH cells by mAb20 or […] immunoblotting. An equal amount of EndoC-βH lysate (5 μg total protein) was loaded to each lane. (FIG. 7D) Immunoblotting of HEK lysates with or with over-expression of a ZnT homolog as indicated. An approximately equal amount of total lysate protein (5 μg) was located to each lane, probed by either mAb20, mAb39, or anti-FALG antibody as indicated. FIG. 8. HTRF response to human ZnT8, mouse ZnT8 and human ZnT3.
(§2) Binding specificities. […] Of note, the epitope-masking effect of ZnT8 immobilization weakened the apparent binding affinities of both mAbs as compared to the affinities determined by flow-cytometry, and such a weakening effect was more pronounced for mAb39, probably due to a closer proximity of the mAb39 epitope to the C-terminal His-tag. Next, we compared the immunoreactivities of mAbs to denatured ZnT8.

[2] = target: T2, monomeric human ZnT8 CTD-His antigen (aa 275-369) (human, UniProt Q8IWU4 275-369); assay: ELISA, monomeric CTD-His on Ni-NTA plate
T2 construct: range 275-369; Immobilized on Ni-NTA plates through the C-terminal poly-histidine tag; also called CTD-His monomer; monomeric CTD antigen; not shown: C-terminal poly-histidine tag
T2 sequence (looked up): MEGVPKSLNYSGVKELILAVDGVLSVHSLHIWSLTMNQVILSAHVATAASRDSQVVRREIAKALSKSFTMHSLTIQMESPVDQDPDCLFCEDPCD
Excerpt: Error bars represent standard deviations. (FIG. 1B) ELISA against a monomeric CTD antigen immobilized to Ni-NTA plate via a C-terminal poly-histidine tag. CTDA and NTDA were used a positive and negative control, respectively (Z>0.5).
Materials and Methods Generating hybridoma. Four pairs of male/female homozygous Slc30a8-1- mice were immunized by weekly intraperitoneal injections of a human ZnT8 antigen (the R325 variant) in reconstituted proteoliposomes. All experiments with mice were approved by the Institutional Animal Care and Use Committee of Johns Hopkins University School of Medicine. Serum antibody titering and validation of anti-ZnT8 specificity by CRISPR/Cas9 ZnT8-knockout were described previously (36). Following a final immunization boost, spleens were isolated. Splenocytes were fused with an immortalized myeloma cell line Sp2/0-Ag14 (CRL-1581, ATCC) at a 4:1 splenocytes-to-myeloma ratio by adding 1 ml of 50% PEG1500 (w/v, Roche) to the cell mixture drop-by-drop over 1 min (37). […] Bound antibodies were detected by an HRP-conjugated goat anti-mouse secondary antibody (Invitrogen, cat. #62-6500) with 1:3000 dilutions in assay buffer, followed by ABTS colorimetric reaction (Life Technologies) and signal readout at 415 nm on a plate reader (Molecular Device). […]

[3] = target: T3, mouse ZnT8-His (mouse, UniProt Q8BGG0 1-367, limits assumed); assay: ELISA titration on ZnT8-His immobilized on Ni-NTA plate; reference is human ZnT8-His
T3 construct: Over-expressed in HEK293 cells, solubilized with DDM and immobilized on Ni-NTA plates, or SDS-denatured on immunoblots; not shown: C-terminal poly-histidine tag
T3 sequence (looked up): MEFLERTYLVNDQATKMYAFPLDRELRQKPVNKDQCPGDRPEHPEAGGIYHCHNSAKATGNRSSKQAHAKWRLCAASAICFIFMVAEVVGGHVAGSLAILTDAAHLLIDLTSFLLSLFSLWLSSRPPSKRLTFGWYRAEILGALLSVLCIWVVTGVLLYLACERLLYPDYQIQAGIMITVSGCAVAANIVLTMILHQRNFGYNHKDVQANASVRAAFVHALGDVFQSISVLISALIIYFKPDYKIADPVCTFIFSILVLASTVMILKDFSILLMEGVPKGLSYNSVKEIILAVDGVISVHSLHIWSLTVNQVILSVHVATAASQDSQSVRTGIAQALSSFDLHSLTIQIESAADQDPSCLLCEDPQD
Excerpt: as §1, §2

[4] = target: T1, human ZnT8-His; assay: ELISA, ZnT8-His on Ni-NTA plate, HRP-conjugated secondary antibody; binder taken from the axis label and paragraph 166; curve taken as human
Excerpt: as §1, §2

B1: mAb20 (antibody, V domains shown)
VH: QIQLVQSGPELKKPGETVKISCKASGYIFTNYPMHWVKQAPGKGLKWMGWINTYSGVPTHADDFKGRFAFSLETSANSAFLQINNLKNEDTATYFCTRSRITPTGGYAMDYWGQGTSVTVSS
VL: DVVMTQTPLSLPVSLGDQASISCRSSQSLVHSNGNTYLHWYLQKPGQSPNLLISKVSNRFSGVPERFSGSGSGTDFTLKISRVEAEDLGVYFCSQNTHVPWTFGGGTKLEIKR
notes: Mouse hybridoma mAb purified on protein A/G; In some assays it was labelled with Alexa Fluor 488 or terbium cryptate; also called monoclonal antibody mAb20; anti-ZnT8 mAb20
- EC50 (read off the curve) [1]: ~3 nM

B2: mAb39 (antibody, V domains shown)
VH: QVQLQQPGAELVKPGASVKLSCKASGYSFTTYWMHWVKQRPGQGLEWVGDINPRNGRTNYNEKSKSKATLTVDISSSTVYMQVSSLTSEDSAVYYCAIWSGAMDYWGPGTSVTVSS
VL: B1 VL with A19P, R24K, S32N, N50K, S54Y, E65D, N96T, W101P
notes: Mouse hybridoma mAb purified on protein A/G; In some assays it was labelled with Alexa Fluor 555 or d2; also called monoclonal antibody mAb39; anti-ZnT8 mAb39
- binding result [2]: no binding
- fold difference in apparent binding affinity, mouse against human ZnT8 [3]: 2 fold
- EC50 (read off the curve) [4]: ~10 nM
